Assay [1] has as its target T1, CD19 (on Raji lymphoma cells) (UniProt P15391 20-556, limits assumed).
T1 sequence (looked up): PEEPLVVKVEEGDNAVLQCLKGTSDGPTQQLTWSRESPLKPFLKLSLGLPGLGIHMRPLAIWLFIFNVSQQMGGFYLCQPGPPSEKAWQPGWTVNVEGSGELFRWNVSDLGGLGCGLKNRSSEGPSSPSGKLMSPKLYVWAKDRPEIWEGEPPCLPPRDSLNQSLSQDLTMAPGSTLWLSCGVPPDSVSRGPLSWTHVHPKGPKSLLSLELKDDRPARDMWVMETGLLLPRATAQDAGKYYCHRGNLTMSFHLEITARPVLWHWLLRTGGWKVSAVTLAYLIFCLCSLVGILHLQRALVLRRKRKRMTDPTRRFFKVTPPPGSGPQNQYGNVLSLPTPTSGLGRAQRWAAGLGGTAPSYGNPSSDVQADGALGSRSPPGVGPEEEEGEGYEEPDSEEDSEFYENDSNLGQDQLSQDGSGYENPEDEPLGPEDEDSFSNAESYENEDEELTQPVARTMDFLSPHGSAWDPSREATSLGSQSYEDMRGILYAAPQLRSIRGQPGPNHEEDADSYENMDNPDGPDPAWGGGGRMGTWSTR
The assay is described as follows: cell-based or functional assay.

The target of assay [2] is T1, CD19 (on Raji lymphoma cells). The assay is described as follows: flow cytometry on Raji cells (CD19 positive), Alexa488 anti-human IgG-Fc, MFI fitted.
In assay [3] the target is T2, CD3 (on Jurkat T cells) (UniProt P07766 23-207).
T2 construct: whole, on cells; Jurkat is a human cell line; also called CD3抗原; 细胞表面CD3
T2 sequence (P07766 23-207): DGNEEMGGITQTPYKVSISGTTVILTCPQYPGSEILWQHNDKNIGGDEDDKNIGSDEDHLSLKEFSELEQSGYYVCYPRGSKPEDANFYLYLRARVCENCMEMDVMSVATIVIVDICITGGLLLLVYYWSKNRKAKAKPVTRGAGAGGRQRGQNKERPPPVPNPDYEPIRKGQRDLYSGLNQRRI
The assay is described as follows: flow cytometry on Jurkat cells (CD3 positive), Alexa488 anti-human IgG-Fc, MFI fitted.

B1: 抗CD3和抗CD19双特异性抗体 JY039 (bispecific antibody)
chain (part 1 of 2): not shown
chain (part 2 of 2): not shown
heavy: QVQLQQSGAELVRPGSSVKISCKASGYAFSSYWMNWVKQRPGQGLEWIGQIWPGDGDTNYNGKFKGKATLTADESSSTAYMQLSSLASEDSAVYFCARRETTTVGRYYYAMDYWGQGTTVTVSS
light: DIQLTQSPASLAVSLGQRATISCKASQSVDYDGDSYLNWYQQIPGQPPKLLIYDASNLVSGIPPRFSGSGSGTDFTLNIHPVEKVDAATYHCQQSTEDPWTFGGGTKLEIK
notes: Three chains: anti-CD3 single-chain unit (full light chain - linker - full heavy chain), anti-CD19 heavy chain, anti-CD19 light chain; constant regions preferably IgG4, linker preferably (GGGGS)6; also called 双特异抗体JY039; not shown: linker (GGGGX)n, X = Gly or Ser, n = 1-6; preferred X = Ser and n = 6; IgG4 heavy chain constant region (preferred; light chain constant region of the anti-CD19 unit; …)
As usually defined, the EC50 is the concentration giving half of the maximal effect. Lower therefore signals greater potency. As to B1, the “EC50 of PBMC-mediated killing of Raji cells (LDH release)” value (“EC50 … (LDH release)” for short) in assay [1] is 0.00126 nM. Further, the EC50 in assay [2] worked out at 1.02 nM.

B2: 抗CD19的单克隆抗体 (built from the anti-CD19 sequences of JY039) (antibody, V domains shown)
VH: B1 heavy
VL: B1 light
notes: also called AntiCD19McAb; 抗CD19单克隆抗体
In the case of B2, in assay [1], the “EC50 … (LDH release)” value amounted to 0.222 nM. In addition, in assay [2], the EC50 stood at 0.191 nM.

B3: v5851双特异抗体 (专利CN105531374 A) (bispecific antibody)
chain 1: not shown
chain 2: not shown
chain 3: DIVMTQSPATLSLSPGERATLSCRSSKSLQNVNGNTYLYWFQQKPGQSPQLLIYRMSNLNSGVPDRFSGSGSGTEFTLTISSLEPEDFAVYYCMQHLEYPITFGAGTKLEIKRTVAAPSVFIFPPSDEQLKSGTASVVCLLNNFYPREAKVQWKVDNALQSGNSQESVTEQDSKDSTYSLSSTLTLSKADYEKHKVYACEVTHQGLSSPVTKSFNRGEC
For B3, the “EC50 … (LDH release)” value in assay [1] amounted to 0.03 nM. For the same molecule, the results for the EC50 in assay [2] and in assay [3] were 2.49 nM and 59.8 nM, respectively.

For the origin of these results see patent publication CN110577603A (BEIJING DONGFANG BIOTECH CO LTD, dated 2019).
